What is called IC50 is the concentration that gives 50% inhibition.

One assay concerns the target HLA-A*02:01. The experiment in a line: IEDB peptide-MHC binding, purified MHC/competitive/radioactivity; ≥ and ≤ were set here for values at or beyond the usual limits of such assays. To be noted: source organism: Influenza A virus.
As to LLFLKVPA, the IC50 was 266 nM.

Still in this assay, the particulars now being: source organism: Mammarenavirus brazilense.
On to LTSLGLLYTV, for which the IC50 is 218 nM.

With MVNHSTYYV, the half-inhibitory concentration (IC50) was 27 nM. The same measure, in the same setting: under NLSNCVHPAV stands 153 nM.

The same assay, now with this note: source organism: Mammarenavirus choriomeningitidis.
With NISGYNFSL, the IC50 amounted to 642 nM.

As to NLNQVIQSV, the IC50 is 28 nM.

The same assay, now with this note: source organism: Mammarenavirus juninense.
For the sequence KMKCFGNTAV, the 50% inhibitory concentration (IC50) amounted to 2930 nM.

Staying with this assay, now noted: source organism: Mammarenavirus lassaense.
In the case of LMDCIMFDAA, the IC50 was 595 nM.

NLYDHALMSI: the half-maximal inhibitory concentration (IC50) is 3.9 nM.

The same assay, now with this note: source organism: Mammarenavirus machupoense.
For the sequence MVDEEPAAL, the 50% inhibitory concentration (IC50) was determined as 998 nM. NLTEMQEAV: the IC50 is 547 nM.

The assay is the same for the next values; noted with them: source organism: Mammarenavirus whitewaterense.
Take LLQFIVFLL: the 50% inhibitory concentration (IC50) was determined as 159 nM. On the same count and under the same terms, then MIITAVNSL, with 2430 nM; and MIITAVNSLI, with 438 nM; and MINDTHFLL, with 265 nM.

Turning to NASYITPYV, the half-inhibitory concentration (IC50) came out at 263 nM.

Still in this assay, the particulars now being: source organism: Vaccinia virus WR.
As for KLLLWFNYL, the half-inhibitory concentration (IC50) was 2 nM. Same read-out and setting: then KLMGTITLNA, with 12 nM; and KLMIYGLPWM, with 11 nM; and KLNGAMVEYV, with 6.1 nM. For the sequence KLNKMTVEL, the IC50 turned out to be 6.5 nM. On the same count and under the same terms, then KLQAAPYIV, with 1.2 nM; and KLQAAVMET, with 363 nM; and KLRPNSFWFV, with 2 nM. Same read-out and setting: then KLSCAVHLI, with 3.2 nM; and KLSDVGHQYA, with 21 nM; and KLSSYHVVSV, with 16 nM. Still for that read-out and setting: then KLTDKKTFI, with 1120 nM. Consider KLTDKKTFII, for which the half-maximal inhibitory concentration (IC50) was 4390 nM. For KLTDSLSSQM, the concentration for half-maximal inhibition (IC50) turned out to be 935 nM. As for KLTFLDVEV, the IC50 was 93 nM. The same measure, in the same setting: under KLVDICDRI stands 6.9 nM; under KLVDICDRIV, 32 nM. Still for that read-out and setting: under KLVSISNFI stands 6.3 nM; under KLYLVDYGL, 13 nM; under KLYLVDYGLV, 20 nM.

Consider KLYTIVSTL, for which the half-maximal inhibitory concentration (IC50) was 15 nM.

KMAGGIGLSI: the concentration for half-maximal inhibition (IC50) stood at 9.7 nM. Still for that read-out and setting: then KMCTVSDYI, with 36 nM; and KMEYNLYAEL, with 297 nM; and KMHDVIAPA, with 2.6 nM.

For the sequence KMIPLLFIL, the IC50 was found to be 2.9 nM. As to KQDISLKRNA, the half-inhibitory concentration (IC50) came to 778 nM.

Regarding KQDRSDGYFL, the IC50 is 3910 nM. For the sequence KQFIQRGGL, the 50% inhibitory concentration (IC50) was 3990 nM. For the sequence KTDGIPITI, the half-inhibitory concentration (IC50) came to 48 nM. The same measure, in the same setting: then KTFKDESIFI, with 93 nM; and KTIIDPDFV, with 346 nM. Still for that read-out and setting: then KTISVVTLL, with 287 nM; and KTITTCYLM, with 445 nM.

KTMAVTYEL: the half-inhibitory concentration (IC50) amounted to 0.4 nM. Still for that read-out and setting: then KTSTLIFFV, with 1 nM; and KVFFGPIYYL, with 18 nM. On the same count and under the same terms, then KVHGLDVKNV, with 1900 nM; and KVTRFYFNM, with 95 nM. The same measure, in the same setting: then KVYDKLFPV, with 0.34 nM; and LAALFMYYA, with 52 nM.

With LAERFCTEV, the IC50 worked out at 234 nM.

As for LAKAIITPVV, the IC50 turned out to be 2360 nM. The same measure, in the same setting: then LIAFSSGTV, with 1810 nM. Same read-out and setting: under LIFFVIILA stands 234 nM; under LILSCIFAFI, 18 nM. Still for that read-out and setting: under LILSLTCSV stands 1.3 nM; under LIMYSVIGV, 0.55 nM; under LIQEIVHEV, 33 nM. Take LISGSTFSI: the 50% inhibitory concentration (IC50) is 496 nM.

In the case of LISLTNEIYA, the IC50 was 1220 nM.

Consider LITLTNVVNI, for which the concentration for half-maximal inhibition (IC50) was determined as 1060 nM.

For the sequence LITMLSIIL, the IC50 is 115 nM. On the same count and under the same terms, under LITWLIDYV stands 71 nM; under LIVLFEVFV, 1930 nM.

LIVLFEVFVV: the IC50 came out at 2070 nM. Still for that read-out and setting: then LIVRYLIQV, with 13 nM; and LIYSMEFTNL, with 345 nM. As for LLDLFGPEV, the IC50 turned out to be 6 nM. Same read-out and setting: under LLEAVYGNI stands 864 nM. Still for that read-out and setting: then LLEIHQYPA, with 98 nM; and LLFDRDTFYI, with 0.4 nM; and LLFFLALSI, with 26 nM. Still for that read-out and setting: under LLFILFYFA stands 85 nM. For the sequence LLFLVCFPST, the IC50 worked out at 413 nM. Same read-out and setting: under LLHVFQEYRL stands 27 nM; under LLIHFLLSL, 17 nM; under LLISMYCSKT, 1150 nM. Take LLLDYMTST: the IC50 was found to be 7 nM. On the same count and under the same terms, then LLLETKTILV, with 3.3 nM. Turning to LLLLLFHSYA, the 50% inhibitory concentration (IC50) is 9.7 nM. The same measure, in the same setting: then LLLWPLYVL, with 0.21 nM.

In the case of LLMMTLPSI, the half-maximal inhibitory concentration (IC50) was 0.11 nM. On the same count and under the same terms, under LLMTSLQYA stands 2.5 nM. Still for that read-out and setting: under LLNLLLWPL stands 0.073 nM; under LLNPCLINV, 3.4 nM.

As for LLPGFVLTCI, the concentration for half-maximal inhibition (IC50) is 3.7 nM. The same measure, in the same setting: then LLSAINFKI, with 0.54 nM. Same read-out and setting: under LLSKNTFYL stands 3.1 nM; under LLSLFSTLV, 12 nM. For LLSLLVIWI, the IC50 came out at 148 nM.

For the sequence LLSLLVIWIL, the IC50 was found to be 112 nM. The same measure, in the same setting: then LLSQYLSRV, with 1 nM.

For the sequence LLSSVDYKNI, the IC50 turned out to be 908 nM.

Consider LLSYYVVYV, for which the concentration for half-maximal inhibition (IC50) amounted to 0.46 nM. Still for that read-out and setting: then LLVAPMPTA, with 13 nM; and LLVQRVTSV, with 3.1 nM; and LLYAHINAL, with 8.3 nM.

Regarding LLYILRYIV, the 50% inhibitory concentration (IC50) was 138 nM. Same read-out and setting: then LLYLILFLL, with 2200 nM; and LMDSIFVST, with 0.72 nM; and LMEVFPQLDL, with 244 nM.

LMGTITLNA: the half-inhibitory concentration (IC50) worked out at 173 nM.

As for LMIEYNLLT, the IC50 stood at 1.5 nM. Same read-out and setting: under LMIFISSFLL stands 27 nM; under LMMSCISCI, 12 nM; under LMMTLPSIFL, 0.2 nM. On the same count and under the same terms, under LMPIRTDTT stands 2170 nM; under LMSNIKTMMI, 1560 nM. On the same count and under the same terms, under LMSTLLIYL stands 0.13 nM. For the sequence LMYDIINSV, the half-inhibitory concentration (IC50) was 1.8 nM. In the case of LQISQCQRI, the IC50 was 1370 nM. Regarding LQKFSFKIA, the IC50 stood at 4660 nM. The same measure, in the same setting: under LQYDLWNVV stands 22 nM.

As to LTDKKTFII, the IC50 worked out at 881 nM.

Regarding LTDSLSSQM, the half-inhibitory concentration (IC50) was found to be 4270 nM. Same read-out and setting: then LTFNFTPKI, with 251 nM.

LTFWQIDYL: the IC50 was determined as 7.3 nM.

As to LTIMGVIFL, the IC50 was 608 nM. On the same count and under the same terms, under LTIMGVIFLI stands 9.4 nM; under LTNEIYASI, 864 nM. Take LTNEIYASII: the half-maximal inhibitory concentration (IC50) was determined as 4330 nM.

Consider LTNVVNIST, for which the IC50 was found to be 3980 nM. On the same count and under the same terms, then LTREMGFLV, with 2360 nM; and LTVLGLGLSL, with 1930 nM; and LVASLNPNM, with 387 nM. Regarding LVDAIDNIV, the IC50 came out at 37 nM. Take LVDICDRIV: the concentration for half-maximal inhibition (IC50) amounted to 2140 nM. Regarding LVDNVDFAT, the half-inhibitory concentration (IC50) turned out to be 461 nM. Same read-out and setting: under LVDNVDFATI stands 3670 nM; under LVFIKPPLI, 55 nM; under LVITINYFL, 25 nM. Turning to LVLGIALLYI, the IC50 stood at 6.7 nM. Still for that read-out and setting: then LVVDNGELM, with 3600 nM; and MASPENVIL, with 846 nM. Same read-out and setting: under MIDDSIEGI stands 210 nM; under MISRHCCIL, 1030 nM.

For MITMSAFLI, the half-inhibitory concentration (IC50) turned out to be 422 nM. Still for that read-out and setting: then MITMSAFLIV, with 386 nM; and MIYGLIACL, with 8.5 nM. Regarding MLFVNDLMT, the IC50 amounted to 747 nM.

As for MLFVNDLMTM, the half-maximal inhibitory concentration (IC50) came to 51 nM. Same read-out and setting: under MLIEVILTA stands 5 nM. On the same count and under the same terms, then MLLALVALV, with 0.42 nM.

As for MLLHVGIPL, the IC50 was 1.4 nM. For MLMFIFTGI, the half-maximal inhibitory concentration (IC50) is 0.38 nM. The same measure, in the same setting: under MLNFSIYSV stands 0.15 nM. The same measure, in the same setting: under MLNGIMYRL stands 0.35 nM; under MLPKQDIVGL, 96 nM; under MLVNRMQRI, 48 nM. Regarding MLYFAGGLSV, the IC50 came to 0.35 nM. On the same count and under the same terms, under MMCYFLTATL stands 18 nM. The same measure, in the same setting: then MMIDDFGTA, with 3.2 nM; and MMKTYIEFV, with 4.7 nM; and MMMMKWIISI, with 10 nM.

MMWDLKKKGL: the IC50 is 103 nM. Take MQRIISLSV: the 50% inhibitory concentration (IC50) is 454 nM. Same read-out and setting: under MTFGDIPLV stands 0.98 nM. On the same count and under the same terms, under MTLSCNGET stands 1940 nM; under MTPSPFYTV, 6.4 nM; under MTPSPFYTVM, 1700 nM. Same read-out and setting: under MVISLLSMI stands 155 nM; under MVNTVLITV, 121 nM.

On to NAPIKTFML, for which the IC50 turned out to be 3410 nM. The same measure, in the same setting: then NIEKYFTFLV, with 1450 nM; and NIHSEMYSL, with 580 nM; and NIIDWQFAI, with 5.4 nM. On the same count and under the same terms, then NISTILYFT, with 128 nM; and NIVIFVKRL, with 1280 nM.

Take NIVWEKKSLV: the half-inhibitory concentration (IC50) came to 63 nM. NIWAIIPLSA: the IC50 is 87 nM. Same read-out and setting: under NIYCLEYINT stands 882 nM. Consider NIYLNFPWL, for which the IC50 amounted to 1210 nM. Same read-out and setting: under NLATSIYTI stands 1.2 nM. Same read-out and setting: under NLFDIPLLTV stands 0.33 nM. On to NLFTFLHEI, for which the 50% inhibitory concentration (IC50) stood at 1.1 nM.

In the case of NLLLWPLYV, the half-inhibitory concentration (IC50) is 0.12 nM. On the same count and under the same terms, then NLLSKNTFYL, with 1.4 nM; and NLNIVRDML, with 2760 nM; and NLNIVRDMLV, with 28 nM.

On to NLNMTDGDSV, for which the concentration for half-maximal inhibition (IC50) came out at 4320 nM. The same measure, in the same setting: under NLPEDIKRV stands 151 nM; under NLPSSENYM, 135 nM. As to NLVKLSSYHV, the IC50 is 1420 nM. On to NLVKWPLLNI, for which the IC50 came out at 146 nM. The same measure, in the same setting: under NLYDDNDIRT stands 40 nM; under NMISDTIFV, 2.2 nM; under NMNYSDDYMM, 2640 nM.

The record behind these values is the Immune Epitope Database (IEDB).
